Data reported in publication PMC8115599, “Mechanism of MRX inhibition by Rif2 at telomeres” (Nature Communications, 2021).

Target: T1, GST-Rif2_(1-60) (S. cerevisiae, UniProt Q06208 1-60)
T1 construct: Rif2, S. cerevisiae, residues 1-60; also called GST-ScRif2_(1-60); Rif2 BAT; source: E. coli BL21 (DE3), purified (GSH Sepharose, Hitrap Heparine)
T1 sequence (looked up): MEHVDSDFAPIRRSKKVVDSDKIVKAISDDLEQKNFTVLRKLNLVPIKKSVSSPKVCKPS
Assay: pull-down; GST-Rif2_(1-60), its F8A mutant or GST (10 µg) immobilised on Glutathione Sepharose 4B; Rad50∆CC (30 µg) added in 100 µL 50 mM Tris HCl pH 8, 150 mM NaCl, 1 mM DTT, 0.5 mM EDTA, 10% glycerol, 2 mM MgCl2, benzonase; 120 min at 4 °C; glutathione elution, SDS-PAGE, silver staining
Conditions: both partners purified

B1: Rad50∆CC, purified (His-SUMO tag removed) (domain or fragment, S. cerevisiae)
chain: MSAIYKLSIQGIRSFDSNDRETIEFGKPLTLIVGMNGSGKTTIIECLKYATTGDLPPNSKGGVFIHDPKITGEKDIRAQVKLAFTSANGLNMIVTRNIQLLMKKTTTTFKTLEGQLVAINNSGDRSTLSTRSLELDAQVPLYLGVPKAILEYVIFCHQEDSLWPLSEPSNLKKKFDEIFQAMKFTKALDKILCYDDIDVYSKALDSAIMKYHGLKMQDINRIIDELWKRTYSGTDIDTIKIRSDEVSSTVKGKSYNYRVVMYKQDVELDMRGRCSAGQKVLASIIIRLALSETFGANCGVIALDEPTTNLDEENIESLAKSLHNIINMRRHQKNFQLIVITHDEKFLGHMNAAAFTDHFFKVKRDDRQKSQIEWVDINRVTY
notes: Rad50, S. cerevisiae, N-terminal Head domain, residues 1-189; residues joining the two Head domains in the Rad50∆CC allele; Rad50, S. cerevisiae, C-terminal Head domain, residues 1125-1312; also called Rad50 ATPase Head; Rad50 Head domains; source: E. coli BL21 (DE3), purified (NiNTA, PD10; tag cleaved with His-SUMO-Protease); not shown: His6-SUMO, N-terminal, cleaved
binding result: binds
